Source: PMC11119796
Where “and” joins values, the source holds several entries; their conditions need not be identical. Identical values can stand only once.

What was measured:
[1] = biological target: endogenous PKM2 (A549 cells) (human (endogenous in A549)) (UniProt P14618); assay: cross-linking; DSS 250 μM added to collected cells in PBS pH 8.0, 30 min at 37 °C, quenched with 10 mM Tris-HCl pH 7.5; lysis and Western blot of PKM2; 4T1 cells (control or Islr-deleted) and A549 cells (with or without stable ISLR, H2O2 at indicated dose for 30 min)
[2] = biological target: endogenous Pkm2 (4T1 cells) (mouse (endogenous in 4T1)) (UniProt P52480); assay: as above

Sequence of endogenous Pkm2 (4T1 cells), P52480 1-531 (enzyme; other documents disagree on this pair) (P52480 whole entry): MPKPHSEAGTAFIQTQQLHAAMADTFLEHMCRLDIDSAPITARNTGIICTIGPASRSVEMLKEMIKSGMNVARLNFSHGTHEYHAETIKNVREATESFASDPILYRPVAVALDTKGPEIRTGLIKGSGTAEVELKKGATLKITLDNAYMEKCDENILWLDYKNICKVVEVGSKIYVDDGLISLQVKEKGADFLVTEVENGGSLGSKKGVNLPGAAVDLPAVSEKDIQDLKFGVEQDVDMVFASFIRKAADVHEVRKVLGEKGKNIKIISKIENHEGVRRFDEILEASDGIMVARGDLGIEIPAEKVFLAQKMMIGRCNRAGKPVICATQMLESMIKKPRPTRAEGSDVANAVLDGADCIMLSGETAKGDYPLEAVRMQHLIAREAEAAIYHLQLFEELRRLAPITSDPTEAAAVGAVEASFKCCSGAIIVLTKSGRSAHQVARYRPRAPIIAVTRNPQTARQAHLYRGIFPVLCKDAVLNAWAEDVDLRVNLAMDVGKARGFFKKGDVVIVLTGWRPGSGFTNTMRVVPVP
Sequence of endogenous PKM2 (A549 cells), P14618 1-531 (enzyme; other documents disagree on this pair) (P14618 whole entry): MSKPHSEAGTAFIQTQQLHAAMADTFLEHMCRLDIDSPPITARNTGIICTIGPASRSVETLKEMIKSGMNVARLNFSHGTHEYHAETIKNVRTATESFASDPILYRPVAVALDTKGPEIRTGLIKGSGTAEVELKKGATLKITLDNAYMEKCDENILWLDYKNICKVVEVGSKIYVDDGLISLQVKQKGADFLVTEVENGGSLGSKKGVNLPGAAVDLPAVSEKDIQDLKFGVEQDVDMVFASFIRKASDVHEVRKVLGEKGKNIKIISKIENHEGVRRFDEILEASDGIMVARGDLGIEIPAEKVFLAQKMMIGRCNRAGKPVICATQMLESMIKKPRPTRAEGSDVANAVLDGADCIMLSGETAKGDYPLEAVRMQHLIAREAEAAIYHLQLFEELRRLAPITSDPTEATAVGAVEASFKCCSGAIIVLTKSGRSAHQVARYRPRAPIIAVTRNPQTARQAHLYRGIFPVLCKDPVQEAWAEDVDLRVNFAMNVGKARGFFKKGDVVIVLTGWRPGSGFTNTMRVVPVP

Row | stoichiometry N [1] | stoichiometry N [2] | Substance
1 | 2 |  | endogenous PKM2 (A549 cells), P14618 1-531 (enzyme; other documents disagree on this pair)
2 |  | 2 and 4 | endogenous Pkm2 (4T1 cells), P52480 1-531 (enzyme; other documents disagree on this pair)
